Reference: patent US20260337282 (published 2026)
Like-named read-outs stand apart in the source and are kept apart here. Each block holds one binder with its values, some of them ahead of it.

How the values were obtained:
Assay in all cases: FACS
[1] = biological target: human CCR8 (human)
[2] = biological target: human CCR8 (human); remark: listed apart in the source
[3] = biological target: T1, human CX3CR1 (human)
T1 chain: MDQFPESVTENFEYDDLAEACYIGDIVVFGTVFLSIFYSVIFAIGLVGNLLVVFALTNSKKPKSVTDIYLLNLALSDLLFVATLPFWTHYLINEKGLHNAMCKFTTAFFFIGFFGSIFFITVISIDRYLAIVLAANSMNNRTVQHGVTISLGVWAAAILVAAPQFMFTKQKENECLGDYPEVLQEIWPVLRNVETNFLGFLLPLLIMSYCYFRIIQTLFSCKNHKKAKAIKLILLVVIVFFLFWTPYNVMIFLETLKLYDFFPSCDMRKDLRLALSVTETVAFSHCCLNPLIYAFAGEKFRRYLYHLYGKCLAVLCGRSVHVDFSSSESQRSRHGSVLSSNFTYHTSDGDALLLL

[4] = biological target: T2, human CCR2 (human)
T2 chain: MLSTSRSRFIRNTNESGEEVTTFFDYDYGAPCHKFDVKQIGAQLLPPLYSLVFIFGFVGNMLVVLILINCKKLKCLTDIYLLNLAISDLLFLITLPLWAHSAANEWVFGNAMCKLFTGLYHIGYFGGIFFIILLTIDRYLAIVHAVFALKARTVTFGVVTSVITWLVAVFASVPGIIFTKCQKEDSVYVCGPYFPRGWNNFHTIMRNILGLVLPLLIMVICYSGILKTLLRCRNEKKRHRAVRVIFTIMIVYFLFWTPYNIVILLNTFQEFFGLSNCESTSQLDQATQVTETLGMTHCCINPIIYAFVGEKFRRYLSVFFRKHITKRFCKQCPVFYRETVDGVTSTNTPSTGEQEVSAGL

[5] = biological target: human CCR8 (human); remark: listed apart in the source
[6] = biological target: T3, mouse CCR8 (mouse)
T3 chain: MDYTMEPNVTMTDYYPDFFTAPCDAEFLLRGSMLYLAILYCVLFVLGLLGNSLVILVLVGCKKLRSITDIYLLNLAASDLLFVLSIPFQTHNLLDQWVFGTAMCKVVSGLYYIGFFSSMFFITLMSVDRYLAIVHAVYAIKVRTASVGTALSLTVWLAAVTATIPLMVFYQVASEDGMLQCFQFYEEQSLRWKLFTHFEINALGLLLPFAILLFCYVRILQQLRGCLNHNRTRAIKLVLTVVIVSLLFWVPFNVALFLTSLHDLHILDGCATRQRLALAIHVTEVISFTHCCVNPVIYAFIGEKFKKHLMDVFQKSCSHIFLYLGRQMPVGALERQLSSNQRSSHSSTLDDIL

[7] = biological target: T3, mouse CCR8
[8] = biological target: T4, cynomolgus CCR8 (cynomolgus)
T4 chain: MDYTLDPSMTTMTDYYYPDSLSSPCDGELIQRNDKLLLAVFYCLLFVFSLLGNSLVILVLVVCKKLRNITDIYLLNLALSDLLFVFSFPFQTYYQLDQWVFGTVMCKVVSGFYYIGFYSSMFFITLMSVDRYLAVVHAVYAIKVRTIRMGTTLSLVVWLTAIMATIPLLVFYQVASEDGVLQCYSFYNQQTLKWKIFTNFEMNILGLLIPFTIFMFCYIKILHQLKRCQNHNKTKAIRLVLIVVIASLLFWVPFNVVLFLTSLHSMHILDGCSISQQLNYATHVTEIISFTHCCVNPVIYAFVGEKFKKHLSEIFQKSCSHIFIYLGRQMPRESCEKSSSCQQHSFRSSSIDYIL

[9] = biological target: T5, human CCR4 (human)
T5 chain: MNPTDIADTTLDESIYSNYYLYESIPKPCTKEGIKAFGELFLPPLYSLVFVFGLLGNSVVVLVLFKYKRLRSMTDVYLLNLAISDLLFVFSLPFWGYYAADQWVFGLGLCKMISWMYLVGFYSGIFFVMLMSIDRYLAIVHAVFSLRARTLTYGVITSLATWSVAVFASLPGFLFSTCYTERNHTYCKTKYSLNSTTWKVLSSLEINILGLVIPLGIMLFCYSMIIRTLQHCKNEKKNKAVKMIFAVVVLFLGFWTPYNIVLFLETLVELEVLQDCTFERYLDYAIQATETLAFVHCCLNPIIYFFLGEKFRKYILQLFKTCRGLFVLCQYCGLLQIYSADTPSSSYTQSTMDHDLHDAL

[10] = biological target: human CCR8 (human); remark: listed apart in the source
[11] = biological target: T3, mouse CCR8
[12] = biological target: human CCR5 (human)
Sequence of human CCR5 (human) (O14692 whole entry): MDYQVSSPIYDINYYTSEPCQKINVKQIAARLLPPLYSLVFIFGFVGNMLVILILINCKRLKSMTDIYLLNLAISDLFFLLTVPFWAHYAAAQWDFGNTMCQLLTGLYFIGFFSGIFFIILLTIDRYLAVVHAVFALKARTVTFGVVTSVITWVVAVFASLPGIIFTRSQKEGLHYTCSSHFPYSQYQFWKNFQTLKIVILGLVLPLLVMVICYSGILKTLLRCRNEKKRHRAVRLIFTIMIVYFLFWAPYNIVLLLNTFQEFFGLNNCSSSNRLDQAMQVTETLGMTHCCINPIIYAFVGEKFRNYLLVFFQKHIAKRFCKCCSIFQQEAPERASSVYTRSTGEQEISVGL

[13] = biological target: T3, mouse CCR8
[14] = biological target: T4, cynomolgus CCR8

Sequence of human CCR8 (human) (chain, as listed by the source): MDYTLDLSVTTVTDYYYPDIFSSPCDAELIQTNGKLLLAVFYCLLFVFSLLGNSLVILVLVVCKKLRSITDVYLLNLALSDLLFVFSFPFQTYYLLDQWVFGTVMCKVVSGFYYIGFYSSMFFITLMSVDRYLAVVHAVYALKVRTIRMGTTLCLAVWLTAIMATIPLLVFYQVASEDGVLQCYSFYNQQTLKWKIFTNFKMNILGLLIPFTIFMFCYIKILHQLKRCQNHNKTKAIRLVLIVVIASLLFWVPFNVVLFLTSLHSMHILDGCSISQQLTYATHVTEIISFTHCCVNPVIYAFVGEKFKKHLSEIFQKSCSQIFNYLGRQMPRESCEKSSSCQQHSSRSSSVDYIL

- EC50 [1]: 0.287 µg/mL
- EC50 [2]: 0.287 µg/mL
- binding result [3]: no binding
- binding result [4]: no binding
- EC50 [5]: 0.207 µg/mL
- EC50 [6]: 0.168 µg/mL
- EC50 [7]: 0.4 µg/mL
- EC50 [8]: > 2 µg/mL
- binding result [9]: no binding
- EC50 [10]: 0.285 µg/mL
- EC50 [11]: 0.4 µg/mL
- binding result [12]: no binding
B1: 11F5 (antibody, V domains shown)
VH: EVQLVESGGGVVQPGRSLRLSCAASGFTFSSYVVHWVRQAPGKGLEWVAVISYDGDNKFYADSVKGRFTISRDNSKNTLYLQMNSLRTEDTAVYYCARGRNYYYYYGLDVWGQGTTVTVSS
VL: DIVMTQTPLSLSVTPGQPASISCKSSQSLLYSDGKTYLYWYLQKAGQPPQLLIYEVSNRFSGVPDRFSGSGSGTDFTLKISRVEAEDVGVFYCMQSLKVPPTFGQGTKVDIK

- binding result [13]: no binding
- binding result [14]: no binding
- EC50 [2]: 0.039 µg/mL
- EC50 [11]: > 10 µg/mL
B2: 7B16 analog (antibody, V domains shown)
VH: EVQLVESGGGLVQPGGSLKLSCAASGFTFNTYAMNWVRQASGKGLEWVGRIRSKSNNYATYYADSVKDRFTISRDDSKNTAYLQMNSLKTEDTAVYYCVRGLLRYRFFDVWGQGTTVTVSS
VL: DIVMTQSPLSLPVTPGEPASISCRSSKSLLHSNGNTYLYWFLQKPGQSPQLLIYRMSNLASGVPDRFSGSGSGTDFTLKISRVEAEDVGVYYCMQHLEYPFTFGGGTKVEIK

- binding result [13]: no binding
- EC50 [2]: 0.058 µg/mL
- EC50 [11]: > 10 µg/mL
B3: 10A11 analog (antibody, V domains shown)
VH: EVQLVESGGALVKPGGSLRLSCAASGFTFSTYALYWVRQAPGKGLEWVGRIRSKSNNYATYYADSVKDRFTISRDDSKNTLYLQMNSLKTEDTAVYYCTRARFYYSDYGYAMDYWGQGTLVTVSS
VL: DIVMTQSPDSLAVSLGERATINCRSSKSLLHSNRNTYLYWYQQKPGQPPKLLIYRMSQLASGVPDRFSGSGSGTDFTLTISSLQAEDVAVYYCMQHLEYPLTFGQGTKLEIKR
